T1: tumor necrosis factor receptor 2 (TNFR2) expressed on cells (human, UniProt P20333 23-461)
T1 construct: whole, on cells; also called human TNFR2; TNFRSF1B
T1 sequence (looked up): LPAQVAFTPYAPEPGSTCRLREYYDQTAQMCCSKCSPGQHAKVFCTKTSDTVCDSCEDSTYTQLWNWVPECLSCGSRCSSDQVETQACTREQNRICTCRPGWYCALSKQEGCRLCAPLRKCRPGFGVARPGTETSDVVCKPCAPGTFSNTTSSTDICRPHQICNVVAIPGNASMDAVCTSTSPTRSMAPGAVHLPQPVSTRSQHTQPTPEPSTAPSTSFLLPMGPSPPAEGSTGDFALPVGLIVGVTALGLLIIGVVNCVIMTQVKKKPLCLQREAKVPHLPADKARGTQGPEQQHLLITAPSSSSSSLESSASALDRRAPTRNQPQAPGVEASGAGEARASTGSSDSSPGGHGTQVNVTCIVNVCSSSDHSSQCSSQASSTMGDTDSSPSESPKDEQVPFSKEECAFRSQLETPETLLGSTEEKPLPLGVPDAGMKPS

T2: TNFR2 monomeric antigen (UniProt P20333 23-257, limits assumed)
T2 construct: extracellular domain
T2 sequence (looked up): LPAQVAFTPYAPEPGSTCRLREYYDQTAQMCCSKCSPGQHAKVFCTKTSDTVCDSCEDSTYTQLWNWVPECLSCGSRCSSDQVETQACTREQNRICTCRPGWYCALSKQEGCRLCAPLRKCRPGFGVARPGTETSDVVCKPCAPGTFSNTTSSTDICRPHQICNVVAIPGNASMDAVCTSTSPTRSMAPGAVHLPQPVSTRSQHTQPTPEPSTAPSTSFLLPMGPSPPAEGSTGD


Experiments:
[1] = biological target: T1, tumor necrosis factor receptor 2 …; assay: flow cytometry on TNFR2-expressing Ramos-Blue cells, anti-human IgG-PE
Procedure: Subsequently, binding affinity of each antibody was evaluated using Ramos-Blue reporter cells expressing TNFR2. Each antibody was added at concentrations of 0.01, 0.1, 1, 10, 100, 1000, 10000, and 100000 ng/mL to the TNFR2-Ramos-Blue cells used in a reporter assay, and the cells were incubated for 1 hour on ice. After centrifugation for 5 minutes at 1200 rpm, the supernatant was removed. After washing once with a FACS buffer, anti-human IgG-PE was added to each well. The samples were left standing for 30 minutes away from light on ice. After centrifugation for 5 minutes at 1200 rpm, the supernatant was removed. After washing once with a FACS buffer, fluorescence was analyzed with a flow cytometer (FCM). The mean value of fluorescence intensity was used as a value corresponding to the amount of binding. Experiments were independently conducted twice under the same condition.

TNFR2 monomeric antigen = biological target: T2, TNFR2 monomeric antigen; assay: SPR (BIAcore T200), antibody captured with human antibody capture kit, monomeric antigen as analyte
Procedure: Binding kinetics analysis and evaluation of each antibody to a monomeric antigen and dimeric antigen were conducted through surface plasmon resonance (SPR) using BIAcore T200 system (GE Healthcare). Monomeric and dimeric antigens were prepared. The affinity of each antibody to the monomeric and dimeric antigens was evaluated to study the presence/absence of intramolecular bridging activity. The SPR technology is based on measuring the index of refraction near the surface of a gold coated biosensor chip. A change in the index of refraction indicates a change in mass on the surface due to an interaction between an immobilized antibody and a monomeric or dimeric antigen infused into the solution. The mass increases when a molecule binds to an antibody immobilized on the surface, whereas the mass decreases when an analyte dissociates from an immobilized antibody. Analysis of a biparatopic antibody and the original monoclonal antibody by SPR can not only evaluate the performance of each antibody, but also see the effect of multivalent bond.
The monomeric and dimeric antigens were prepared as shown in the schematic diagram of FIG. 8. First, an etanercept (Pfizer), which is an Fc fusion protein of a TNFR2 extracellular region, was prepared, and a TNFR2 antigen molecule was obtained by enzymatic degradation and reductive re-oxidation reaction. An antibody was immobilized on a sensor chip using a human antibody capture kit according to the protocol by using a BIAcore T200 system (GE Healthcare). The interaction was analyzed by using the two types of antigens described above as analytes.

Binder | binding result (TNFR2 monomeric antigen) | binding result [1]
Bp96-92 epitope region-bridging biparatopic antibody (bispecific antibody, V domains shown, N side Fab joined by split-intein trans-splicing to hinge and hole Fc; C side VH-CH1-hinge-knob Fc plus light chain; Human IgG1 constant regions) VH 1: EVQLQQSGAELVKPGASVKLSCTPSGFNIKDTYMHWVKQRPEQGLEWIGRIDPANGYTEYDPKFQDKATITADTSSNTAYLQLSSLTSEDTAVYYCADTQLYYWGQGTTLTVSS VL 1: QIVLTQSPAIMSASLGERVTMTCTASSSVSSTYLHWYQQKPGSSPKLWIYSTSNLASGVPARFSGSGSGTSYSLTISNMEAEDAATYYCHQYHRSPLTFGAGTKLELKR VH 2: KVQLQQSGAELVKPGASVKLSCKASGYTFTESIIHWVKQRSGQGLEWIGWFYPGSDNINYNEKFKDKATLTADKSSSTVYMELTRLTSEDSAVYFCASHEGPYVYFDYWGQGTTLTVSS VL 2: DIVMTQSHKFMSTSVGDRVSITCKASQDVSTAVAWYQQKPGQSPKLLIYWTSTRHTGVPDRFTGSGSGTDYTLTISSVQAEDLALYYCQHHYSTPYTFGGGTKLEIQR | binds | binds
Bp45-94 epitope region-bridging biparatopic antibody (bispecific antibody, V domains shown, N side Fab joined by split-intein trans-splicing to hinge and hole Fc; C side VH-CH1-hinge-knob Fc plus light chain; Human IgG1 constant regions) VH 1: EVQLQQSGPEMEKPGASVKISCKASGYSFTGYNMNWVKQSIGKSLEWIGKIDPYYGGTDYNLRFKDKATLTVDKSSSTAYMHLSRLTSEDSAVYYCAREPNYGSNDWYFDVWGAGTTVTVSS VL 1: DIQVTQTTSSLSASLGDRVTISCRASQDIDNYLNWYQQRPDGTVKLLIYYTSILHSGVPSRFSGSGSRTDFSLTISSLEEEDFATYFCQQGNTLPWTFGGGTKLEFKR VH 2: QVQLQQSGAELARPGTSVKLSCKASGYTFTSYWMQWVKQTPGQGLEWIGAIYPGDGDSRYIQKFKGKATLTADKSSSTAYMQLSSLASEDSAVYYCARDGNYYAMDYWGQGTSVTVSS VL 2: QIVLTQSPAIMSASLGERVTITCTASSSVSSTYLHWYQQKPGSSPKLWIYSTSNLASGVPARFSGSGSGTSYSLTISSMEAEDAATYYCHQYHRSPPTFGAGTKLELKR | binds | binds
Bp109-96 epitope region-bridging biparatopic antibody (bispecific antibody, V domains shown, N side Fab joined by split-intein trans-splicing to hinge and hole Fc; C side VH-CH1-hinge-knob Fc plus light chain; Human IgG1 constant regions) VH 1: QVQLKESGPGLVAPSQSLSITCTVSGFSLTVYGVNWVRQPPGKGLEWLGMIWGDGSTAYNSALKSRLTITKDNSKTQVFLKMNSLQTDDTARYYCARDGRRYALDYWGQGTSVTVSS VL 1: DIVLTQSPTSLAVSLGQRATISCRASESVDSYGDSFLHWYQQKPGQPPILLIYRASNLDSGIPARFSGSGSRTDFTLTINPVEADDVATYYCQQSNEDPYTFGGGTKLEINR VH 2: EVQLQQSGAELVKPGASVKLSCTPSGFNIKDTYMHWVKQRPEQGLEWIGRIDPANGYTEYDPKFQDKATITADTSSNTAYLQLSSLTSEDTAVYYCADTQLYYWGQGTTLTVSS VL 2: QIVLTQSPAIMSASLGERVTMTCTASSSVSSTYLHWYQQKPGSSPKLWIYSTSNLASGVPARFSGSGSGTSYSLTISNMEAEDAATYYCHQYHRSPLTFGAGTKLELKR | binds | binds
Bp45-92 epitope region-bridging biparatopic antibody (bispecific antibody, V domains shown, The N side Fab (VH-CH1 plus light chain) is joined by Cfa DnaE split-intein trans-splicing to the hinge and hole Fc; The C side is VH-CH1-hinge-knob Fc plus light chain; Human IgG1 constant regions) VH 1: EVQLQQSGPEMEKPGASVKISCKASGYSFTGYNMNWVKQSIGKSLEWIGKIDPYYGGTDYNLRFKDKATLTVDKSSSTAYMHLSRLTSEDSAVYYCAREPNYGSNDWYFDVWGAGTTVTVSS VL 1: DIQVTQTTSSLSASLGDRVTISCRASQDIDNYLNWYQQRPDGTVKLLIYYTSILHSGVPSRFSGSGSRTDFSLTISSLEEEDFATYFCQQGNTLPWTFGGGTKLEFKR VH 2: KVQLQQSGAELVKPGASVKLSCKASGYTFTESIIHWVKQRSGQGLEWIGWFYPGSDNINYNEKFKDKATLTADKSSSTVYMELTRLTSEDSAVYFCASHEGPYVYFDYWGQGTTLTVSS VL 2: DIVMTQSHKFMSTSVGDRVSITCKASQDVSTAVAWYQQKPGQSPKLLIYWTSTRHTGVPDRFTGSGSGTDYTLTISSVQAEDLALYYCQHHYSTPYTFGGGTKLEIQR |  | binds

More lines, main results first:

binding result (TNFR2 monomeric antigen) | Binder | binding result [1]
binds | Bp109-94 epitope region-bridging biparatopic antibody (bispecific antibody, V domains shown, N side Fab joined by split-intein trans-splicing to hinge and hole Fc; C side VH-CH1-hinge-knob Fc plus light chain; Human IgG1 constant regions) VH 1: QVQLKESGPGLVAPSQSLSITCTVSGFSLTVYGVNWVRQPPGKGLEWLGMIWGDGSTAYNSALKSRLTITKDNSKTQVFLKMNSLQTDDTARYYCARDGRRYALDYWGQGTSVTVSS VL 1: DIVLTQSPTSLAVSLGQRATISCRASESVDSYGDSFLHWYQQKPGQPPILLIYRASNLDSGIPARFSGSGSRTDFTLTINPVEADDVATYYCQQSNEDPYTFGGGTKLEINR VH 2: QVQLQQSGAELARPGTSVKLSCKASGYTFTSYWMQWVKQTPGQGLEWIGAIYPGDGDSRYIQKFKGKATLTADKSSSTAYMQLSSLASEDSAVYYCARDGNYYAMDYWGQGTSVTVSS VL 2: QIVLTQSPAIMSASLGERVTITCTASSSVSSTYLHWYQQKPGSSPKLWIYSTSNLASGVPARFSGSGSGTSYSLTISSMEAEDAATYYCHQYHRSPPTFGAGTKLELKR | binds
binds | Bp109-45 epitope region-bridging biparatopic antibody (bispecific antibody, V domains shown, N side Fab joined by split-intein trans-splicing to hinge and hole Fc; C side VH-CH1-hinge-knob Fc plus light chain; Human IgG1 constant regions) VH 1: QVQLKESGPGLVAPSQSLSITCTVSGFSLTVYGVNWVRQPPGKGLEWLGMIWGDGSTAYNSALKSRLTITKDNSKTQVFLKMNSLQTDDTARYYCARDGRRYALDYWGQGTSVTVSS VL 1: DIVLTQSPTSLAVSLGQRATISCRASESVDSYGDSFLHWYQQKPGQPPILLIYRASNLDSGIPARFSGSGSRTDFTLTINPVEADDVATYYCQQSNEDPYTFGGGTKLEINR VH 2: EVQLQQSGPEMEKPGASVKISCKASGYSFTGYNMNWVKQSIGKSLEWIGKIDPYYGGTDYNLRFKDKATLTVDKSSSTAYMHLSRLTSEDSAVYYCAREPNYGSNDWYFDVWGAGTTVTVSS VL 2: DIQVTQTTSSLSASLGDRVTISCRASQDIDNYLNWYQQRPDGTVKLLIYYTSILHSGVPSRFSGSGSRTDFSLTISSLEEEDFATYFCQQGNTLPWTFGGGTKLEFKR | binds

Reference: US20230192877A1 (NATIONAL INSTITUTES OF BIOMEDICAL INOVATION HEALTH AND …, published 2023)
